Publication PMC10040874

B1: Drosophila melanogaster PRL (wild-type) [D. melanogaster] / Drosophila melanogaster CNNM CBS-pair domain, GST-tagged [D. melanogaster] (parent)
chain 1: MSITMRQKDLRPAPALIEYKGMKFLITDRPSDITINHYIMELKKNNVNTVVRVCEPSYNTDELETQGITVKDLAFEDGTFPPQQVVDEWFEVLKDKYQQNPEACVAVHCVAGLGRAPVLVALALIELGLKYEAAVEMIRDKRRGAINAKQLSFLEKYKPKARLKHKNGHKNSCSVQ
chain 2: VNIISGALELRKKTVADVMTHINDAFMLSLDALLDFETVSEIMNSGYSRIPVYDGDRKNIVTLLYIKDLAFVDTDDNTPLKTLCEFYQNPVHFVFEDYTLDIMFNQFKEGTIGHIAFVHRVNNEGDGDPFYETVGLVTLEDVIEELIQAEIVDE

Variants of: B1
Test: ITC
Settings: with Drosophila melanogaster CNNM CBS-pair domain, 16 µM CNNM titrated with 160 µM PRL

Kd	Variant
7.5 µM	chain 1 R143E
0.6 µM	chain 1 C109D
